Test results as given in PMC4949242, “Conjugative DNA Transfer Is Enhanced by Plasmid R1 Partitioning Proteins”.
Positions count from the first letter of the chain named. Names may count otherwise.

Experiments:
[1] = molecular target: TraI, relaxase/helicase of plasmid R1 (plasmid R1 (R1-16), in E. coli)
[2] = molecular target: TraD, type IV coupling protein (T4CP) of plasmid R1 (plasmid R1 (R1-16), in E. coli)
TraI = TraI (Escherichia coli plasmid R1, UniProt Q6TDU5 1-1756); experiment: fluorescence intensity titration; unit not printed with value; nM from titration range; EMSA: 10 mM Tris-HCl pH 7.5, 50 mM NaCl, 0.005% NP-40, 1 mM DTT, 1 mM EDTA, 25 C, 20 min (DNA 20 nM in Methods, 4 nM in Fig 5 legend); fluorescence: 20 mM Tris-HCl pH 7.5, 100 mM NaCl, 1 mM EDTA, 25 C, 4 nM oriT17*, 0-100 nM TraI; settings: protein: recombinant; label: 3'-TAMRA
[3] = molecular target: T1, TraIΔN308 (helicase domain) (Escherichia coli plasmid R1, UniProt Q6TDU5 309-1756, del1-308); experiment: as above; settings: protein: recombinant; label: 3'-TAMRA
T1 sequence: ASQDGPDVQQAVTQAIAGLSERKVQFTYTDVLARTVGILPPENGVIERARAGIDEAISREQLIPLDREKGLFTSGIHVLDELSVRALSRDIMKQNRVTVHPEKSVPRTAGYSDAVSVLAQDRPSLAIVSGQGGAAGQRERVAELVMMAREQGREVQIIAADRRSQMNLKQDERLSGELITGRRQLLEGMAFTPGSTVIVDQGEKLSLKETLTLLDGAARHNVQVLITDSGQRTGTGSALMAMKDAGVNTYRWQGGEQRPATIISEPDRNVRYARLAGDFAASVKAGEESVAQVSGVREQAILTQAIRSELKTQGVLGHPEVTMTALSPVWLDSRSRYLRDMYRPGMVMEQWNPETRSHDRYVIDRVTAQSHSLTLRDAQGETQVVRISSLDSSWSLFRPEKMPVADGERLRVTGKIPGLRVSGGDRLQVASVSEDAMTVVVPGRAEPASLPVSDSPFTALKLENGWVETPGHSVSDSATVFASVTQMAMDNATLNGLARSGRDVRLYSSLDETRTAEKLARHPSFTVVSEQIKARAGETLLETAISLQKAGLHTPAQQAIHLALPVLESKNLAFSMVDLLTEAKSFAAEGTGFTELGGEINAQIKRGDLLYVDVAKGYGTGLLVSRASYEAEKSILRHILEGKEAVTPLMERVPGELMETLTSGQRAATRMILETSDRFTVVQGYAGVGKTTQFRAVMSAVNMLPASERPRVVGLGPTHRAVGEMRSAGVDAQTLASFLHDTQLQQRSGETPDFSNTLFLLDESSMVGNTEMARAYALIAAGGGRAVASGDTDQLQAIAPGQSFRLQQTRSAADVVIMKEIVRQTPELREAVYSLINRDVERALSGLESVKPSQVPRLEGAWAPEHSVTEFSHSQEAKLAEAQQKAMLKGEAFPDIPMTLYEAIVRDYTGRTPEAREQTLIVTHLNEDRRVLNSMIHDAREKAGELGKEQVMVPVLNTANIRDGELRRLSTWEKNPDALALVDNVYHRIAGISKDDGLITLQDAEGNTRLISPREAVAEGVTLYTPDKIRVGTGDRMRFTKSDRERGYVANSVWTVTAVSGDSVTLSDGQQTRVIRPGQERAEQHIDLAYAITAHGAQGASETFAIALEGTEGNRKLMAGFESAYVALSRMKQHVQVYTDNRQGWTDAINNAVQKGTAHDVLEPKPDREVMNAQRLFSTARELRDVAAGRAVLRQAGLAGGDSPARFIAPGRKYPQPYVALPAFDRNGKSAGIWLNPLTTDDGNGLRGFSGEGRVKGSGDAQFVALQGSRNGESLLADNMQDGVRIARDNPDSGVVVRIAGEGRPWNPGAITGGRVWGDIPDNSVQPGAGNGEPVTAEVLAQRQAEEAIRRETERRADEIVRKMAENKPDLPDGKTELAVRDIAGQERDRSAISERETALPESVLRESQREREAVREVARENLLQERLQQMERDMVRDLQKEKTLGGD

[4] = molecular target: T2, TraIN308 (relaxase domain) (Escherichia coli plasmid R1, UniProt Q6TDU5 1-308); experiment: as above; settings: protein: recombinant; label: 3'-TAMRA
T2 sequence: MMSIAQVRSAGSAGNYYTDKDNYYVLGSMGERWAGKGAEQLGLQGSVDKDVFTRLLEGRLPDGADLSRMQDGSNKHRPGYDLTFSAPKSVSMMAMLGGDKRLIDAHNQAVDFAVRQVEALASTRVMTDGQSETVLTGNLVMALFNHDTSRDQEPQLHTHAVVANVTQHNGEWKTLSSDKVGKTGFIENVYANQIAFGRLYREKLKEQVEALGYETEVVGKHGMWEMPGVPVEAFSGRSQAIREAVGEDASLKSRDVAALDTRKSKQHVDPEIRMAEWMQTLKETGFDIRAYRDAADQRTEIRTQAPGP

ParR [5] = molecular target: T3, ParR (Escherichia coli plasmid R1, UniProt P11906 1-117); experiment: EMSA; ParR 20-320 nM; EMSA: 10 mM Tris-HCl pH 7.5, 50 mM NaCl, 0.005% NP-40, 1 mM DTT, 1 mM EDTA, 25 C, 20 min (DNA 20 nM in Methods, 4 nM in Fig 5 legend); fluorescence: 20 mM Tris-HCl pH 7.5, 100 mM NaCl, 1 mM EDTA, 25 C, 4 nM oriT17*, 0-100 nM TraI; settings: protein: recombinant; tags: none stated; chain copies: 2; label: 3'-TAMRA
T3 sequence: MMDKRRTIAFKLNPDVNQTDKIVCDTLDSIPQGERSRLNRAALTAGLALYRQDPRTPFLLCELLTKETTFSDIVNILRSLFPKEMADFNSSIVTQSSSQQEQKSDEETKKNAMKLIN

ParR [6] = molecular target: T3, ParR; experiment: EMSA; shift from 5:1 protein/DNA molar ratio; EMSA: 10 mM Tris-HCl pH 7.5, 50 mM NaCl, 0.005% NP-40, 1 mM DTT, 1 mM EDTA, 25 C, 20 min (DNA 20 nM in Methods, 4 nM in Fig 5 legend); fluorescence: 20 mM Tris-HCl pH 7.5, 100 mM NaCl, 1 mM EDTA, 25 C, 4 nM oriT17*, 0-100 nM TraI; settings: protein: recombinant; tags: none stated; chain copies: 2; label: 3'-TAMRA on strand 1; blunt

ParR with C-terminal FLAG epitope (pMS-CFLAGparR) (natural protein)
TraI (25 nM) relaxase activity on supercoiled oriT plasmid pDE100 (4 nM), percent open circular DNA, with increasing purified untagged ParR; maximum at 10 nM ParR [1]: 4 fold

B1: ParM with C-terminal FLAG epitope (pMS-CFLAGparM) (natural protein)
chain: MLVFIDDGSTNIKLQWQESDGTIKQHISPNSFKREWAVSFGDKKVFNYTLNGEQYSFDPISPDAVVTTNIAWQYSDVNVVAVHHALLTSGLPVSEVDIVCTLPLTEYYDRNNQPNTENIERKKANFRKKITLNGGDTFTIKDVKVMPESIPAGYEVLQELDELDSLLIIDLGGTTLDISQVMGKLSGISKIYGDSSLGVSLVTSAVKDALSLARTKGSSYLADDIIIHRKDNNYLKQRINDENKISIVTEAMNEALRKLEQRVLNTLNEFSGYTHVMVIGGGAELICDAVKKHTQIRDERFFKTNNSQYDLVNGMYLIGN
TraI (25 nM) relaxase activity on supercoiled oriT plasmid pDE100 (4 nM), percent open circular DNA, with increasing purified untagged ParM; maximum at 20-30 nM ParM [1]: 3 fold

B2: CreParMK123A (Cre fused to ParM residues 2-320 with K123A) (protein)
chain: LVFIDDGSTNIKLQWQESDGTIKQHISPNSFKREWAVSFGDKKVFNYTLNGEQYSFDPISPDAVVTTNIAWQYSDVNVVAVHHALLTSGLPVSEVDIVCTLPLTEYYDRNNQPNTENIERKAANFRKKITLNGGDTFTIKDVKVMPESIPAGYEVLQELDELDSLLIIDLGGTTLDISQVMGKLSGISKIYGDSSLGVSLVTSAVKDALSLARTKGSSYLADDIIIHRKDNNYLKQRINDENKISIVTEAMNEALRKLEQRVLNTLNEFSGYTHVMVIGGGAELICDAVKKHTQIRDERFFKTNNSQYDLVNGMYLIGN
translocation of CreParMK123A to recipient cells by the R1-16 T4SS (CRAfT), percent of wild type Cre-ParM (% of wild type levels) [2]: 24.5

B3: CreParMS39A (Cre fused to ParM residues 2-320 with S39A) (protein)
chain: B2 chain with S38A, A122K
translocation of CreParMS39A to recipient cells by the R1-16 T4SS (CRAfT), percent of wild type Cre-ParM (% of wild type levels) [2]: 59

TTTGCGTGGGGTGTGGT (ssDNA) [oriT17*]
Kd (TraI): 4.05 ± 0.32 nM
Kd [3]: 82.6 ± 13.1 nM
Kd [4]: 0.87 ± 0.19 nM

CGAACGAGCAGTTGTTTCAGCG (ssDNA) [ssrnd]
binding result (ParR [5]): no binding

B4: dsparC (iterons 1 and 2) (dsDNA)
DNA 1: AAACAAAACCCAAAAACAACCC
DNA 2: GGGTTGTTTTTGGGTTTTGTTT
binding result (ParR [6]): binds

AAACAAAACCCAAAAACAACCC (ssDNA) [ssparC]
binding result (ParR [5]): no binding

ACCAAAAGCACCACACCCCACGCAAAAACAAG (ssDNA) [ssoriT]
binding result (ParR [5]): no binding
